The supplement of paper PMC10567573

B1: FAM189A2 (parent)
chain: NLAGFILGCQGAQFVSSVPRCDLV
B2: LCOR (parent)
chain: YKVKERLGTLKNPPKKKMKLMSG
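Further: lentivirally expressed fusions sorted by FACS into six bins by GFP to DsRed ratio, PSI derived from sequencing read proportions per bin multiplied by bin number.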

Variants of: B1
Assay: protein stability index of a GFP-peptide fusion (GPS, HEK-293T) (PSI 1-6); higher = more stable
Conditions: c terminus: a fixed tail appended
Variant NLAGFILGCQGAQFVSSVPRCDLQ [V24Q] has a protein stability index of 2.26. For NLAGFILGCQGAQFVSSVPRCDLR [V24R], the protein stability index was 2.19. NLAGFILGCQGAQFVSSVPRCDLS [V24S] showed a protein stability index of 2.12. NLAGFILGCQGAQFVSSVPRCDLT [V24T] gave a protein stability index of 1.53.

Variants of: B2
Assay: as above
Conditions: c terminus: native
In the case of AKVKERLGTLKNPPKKKMKLMSG [Y1A], the protein stability index is reported as 2.34. For DKVKERLGTLKNPPKKKMKLMSG [Y1D], the protein stability index was 2.03. Work on EKVKERLGTLKNPPKKKMKLMSG [Y1E] yielded a protein stability index of 2.15. FKVKERLGTLKNPPKKKMKLMSG [Y1F] gave a protein stability index of 1.23. For GKVKERLGTLKNPPKKKMKLMSG [Y1G], the protein stability index was 1.2. For KKVKERLGTLKNPPKKKMKLMSG [Y1K], the protein stability index was 1.54. Work on LKVKERLGTLKNPPKKKMKLMSG [Y1L] yielded a protein stability index of 2.59. Work on MKVKERLGTLKNPPKKKMKLMSG [Y1M] yielded a protein stability index of 1.93. With NKVKERLGTLKNPPKKKMKLMSG [Y1N] the protein stability index was 1.9. PKVKERLGTLKNPPKKKMKLMSG [Y1P] gave a protein stability index of 1.72. Variant SKVKERLGTLKNPPKKKMKLMSG [Y1S] has a protein stability index of 2.2. In the case of VKVKERLGTLKNPPKKKMKLMSG [Y1V], the protein stability index is reported as 2.05. In the case of WKVKERLGTLKNPPKKKMKLMSG [Y1W], the protein stability index is reported as 2.2. In the case of YAVKERLGTLKNPPKKKMKLMSG [K2A], the protein stability index is reported as 1.48. YCVKERLGTLKNPPKKKMKLMSG [K2C] showed a protein stability index of 1.79. Variant YDVKERLGTLKNPPKKKMKLMSG [K2D] has a protein stability index of 1.48. Work on YEVKERLGTLKNPPKKKMKLMSG [K2E] yielded a protein stability index of 1.71. Work on YGVKERLGTLKNPPKKKMKLMSG [K2G] yielded a protein stability index of 1.64. For YHVKERLGTLKNPPKKKMKLMSG [K2H], the protein stability index was 1.88. Work on YIVKERLGTLKNPPKKKMKLMSG [K2I] yielded a protein stability index of 1.72. In the case of YLVKERLGTLKNPPKKKMKLMSG [K2L], the protein stability index is reported as 3.05. With YNVKERLGTLKNPPKKKMKLMSG [K2N] the protein stability index was 1.45. Variant YQVKERLGTLKNPPKKKMKLMSG [K2Q] has a protein stability index of 1.31. In the case of YSVKERLGTLKNPPKKKMKLMSG [K2S], the protein stability index is reported as 1.8. In the case of YVVKERLGTLKNPPKKKMKLMSG [K2V], the protein stability index is reported as 3.04. Variant YWVKERLGTLKNPPKKKMKLMSG [K2W] has a protein stability index of 3.46. Work on YYVKERLGTLKNPPKKKMKLMSG [K2Y] yielded a protein stability index of 2.37. With YKCKERLGTLKNPPKKKMKLMSG [V3C] the protein stability index was 1.6. With YKDKERLGTLKNPPKKKMKLMSG [V3D] the protein stability index was 2.36. Work on YKEKERLGTLKNPPKKKMKLMSG [V3E] yielded a protein stability index of 2.08. Work on YKFKERLGTLKNPPKKKMKLMSG [V3F] yielded a protein stability index of 1.62. YKGKERLGTLKNPPKKKMKLMSG [V3G] showed a protein stability index of 1.67. YKHKERLGTLKNPPKKKMKLMSG [V3H] gave a protein stability index of 1.89. In the case of YKKKERLGTLKNPPKKKMKLMSG [V3K], the protein stability index is reported as 1.98. With YKLKERLGTLKNPPKKKMKLMSG [V3L] the protein stability index was 1.97. In the case of YKMKERLGTLKNPPKKKMKLMSG [V3M], the protein stability index is reported as 2.46. Variant YKNKERLGTLKNPPKKKMKLMSG [V3N] has a protein stability index of 2.69. YKPKERLGTLKNPPKKKMKLMSG [V3P] gave a protein stability index of 2.27. Work on YKQKERLGTLKNPPKKKMKLMSG [V3Q] yielded a protein stability index of 3.06. With YKRKERLGTLKNPPKKKMKLMSG [V3R] the protein stability index was 2.51. In the case of YKSKERLGTLKNPPKKKMKLMSG [V3S], the protein stability index is reported as 1.92. Work on YKTKERLGTLKNPPKKKMKLMSG [V3T] yielded a protein stability index of 1.91. With YKWKERLGTLKNPPKKKMKLMSG [V3W] the protein stability index was 3.38. For YKYKERLGTLKNPPKKKMKLMSG [V3Y], the protein stability index was 1.69. Work on YKVAERLGTLKNPPKKKMKLMSG [K4A] yielded a protein stability index of 1.88. With YKVDERLGTLKNPPKKKMKLMSG [K4D] the protein stability index was 1.45. In the case of YKVEERLGTLKNPPKKKMKLMSG [K4E], the protein stability index is reported as 2.48. In the case of YKVGERLGTLKNPPKKKMKLMSG [K4G], the protein stability index is reported as 2.1. Work on YKVHERLGTLKNPPKKKMKLMSG [K4H] yielded a protein stability index of 2.52. YKVLERLGTLKNPPKKKMKLMSG [K4L] showed a protein stability index of 2.23. Work on YKVMERLGTLKNPPKKKMKLMSG [K4M] yielded a protein stability index of 1.26. In the case of YKVNERLGTLKNPPKKKMKLMSG [K4N], the protein stability index is reported as 2.97. Variant YKVPERLGTLKNPPKKKMKLMSG [K4P] has a protein stability index of 1.35. In the case of YKVQERLGTLKNPPKKKMKLMSG [K4Q], the protein stability index is reported as 1.88. YKVRERLGTLKNPPKKKMKLMSG [K4R] gave a protein stability index of 3.6. YKVSERLGTLKNPPKKKMKLMSG [K4S] gave a protein stability index of 1.93. YKVVERLGTLKNPPKKKMKLMSG [K4V] gave a protein stability index of 1.22. Variant YKVWERLGTLKNPPKKKMKLMSG [K4W] has a protein stability index of 3.3. With YKVYERLGTLKNPPKKKMKLMSG [K4Y] the protein stability index was 2.3. For YKVKARLGTLKNPPKKKMKLMSG [E5A], the protein stability index was 1.75. Work on YKVKCRLGTLKNPPKKKMKLMSG [E5C] yielded a protein stability index of 1.74. Work on YKVKDRLGTLKNPPKKKMKLMSG [E5D] yielded a protein stability index of 1.78. YKVKFRLGTLKNPPKKKMKLMSG [E5F] showed a protein stability index of 2.71. In the case of YKVKGRLGTLKNPPKKKMKLMSG [E5G], the protein stability index is reported as 2.44. Work on YKVKHRLGTLKNPPKKKMKLMSG [E5H] yielded a protein stability index of 2.85. For YKVKIRLGTLKNPPKKKMKLMSG [E5I], the protein stability index was 1.75. Work on YKVKKRLGTLKNPPKKKMKLMSG [E5K] yielded a protein stability index of 2.21. Variant YKVKNRLGTLKNPPKKKMKLMSG [E5N] has a protein stability index of 1.25. For YKVKPRLGTLKNPPKKKMKLMSG [E5P], the protein stability index was 2.25. For YKVKQRLGTLKNPPKKKMKLMSG [E5Q], the protein stability index was 1.22. YKVKRRLGTLKNPPKKKMKLMSG [E5R] showed a protein stability index of 1.95. YKVKSRLGTLKNPPKKKMKLMSG [E5S] gave a protein stability index of 2.11. Work on YKVKTRLGTLKNPPKKKMKLMSG [E5T] yielded a protein stability index of 2.22. Work on YKVKVRLGTLKNPPKKKMKLMSG [E5V] yielded a protein stability index of 2.94. YKVKWRLGTLKNPPKKKMKLMSG [E5W] gave a protein stability index of 3.07. With YKVKECLGTLKNPPKKKMKLMSG [R6C] the protein stability index was 4.96. YKVKEDLGTLKNPPKKKMKLMSG [R6D] gave a protein stability index of 1.46. With YKVKEELGTLKNPPKKKMKLMSG [R6E] the protein stability index was 2.17. Work on YKVKEFLGTLKNPPKKKMKLMSG [R6F] yielded a protein stability index of 2.2. For YKVKEGLGTLKNPPKKKMKLMSG [R6G], the protein stability index was 2.21. YKVKEILGTLKNPPKKKMKLMSG [R6I] showed a protein stability index of 2.49. YKVKEKLGTLKNPPKKKMKLMSG [R6K] showed a protein stability index of 1.11. With YKVKELLGTLKNPPKKKMKLMSG [R6L] the protein stability index was 1.84. Work on YKVKEMLGTLKNPPKKKMKLMSG [R6M] yielded a protein stability index of 2.5. For YKVKEPLGTLKNPPKKKMKLMSG [R6P], the protein stability index was 2.47. Variant YKVKEQLGTLKNPPKKKMKLMSG [R6Q] has a protein stability index of 2.16. Variant YKVKESLGTLKNPPKKKMKLMSG [R6S] has a protein stability index of 3.27. YKVKETLGTLKNPPKKKMKLMSG [R6T] showed a protein stability index of 1.72. In the case of YKVKEWLGTLKNPPKKKMKLMSG [R6W], the protein stability index is reported as 2.79. YKVKEYLGTLKNPPKKKMKLMSG [R6Y] showed a protein stability index of 2.14. YKVKERAGTLKNPPKKKMKLMSG [L7A] showed a protein stability index of 2.49. For YKVKERCGTLKNPPKKKMKLMSG [L7C], the protein stability index was 2.75.
